# Assay: soluble on expression in E. coli; label from the status in PepcDB or PDB records
row,Sequence,soluble on expression in E. coli
1,MSLLRIEPDLSHFKAGTYRFTPQMTVREMLKLLESGKEAQFPLRLVEGMRLSDYLKQLREAPYIKHTLSDDKYATVAQALELENPEWIEGWFWPDTWMYTANTTDVALLKRAHKKMVKAVDSAWEGRADGLPYKDKNQLVTMASIIEKETAVASERDQVASVFINRLRIGMRLQTDPTVIYGMGERYNGKLSRADLETPTAYNTYTITGLPPGAIATPGADSLKAAAHPAKTPYLYFVADGKGGHTFNTNLASHNKSVQDYLKVLKEKNAQEGHHHHHH,soluble
2,MPMINALGLLEVDGMVAAIDAADAMLKAANVRLLSHEVLDPGRLTLVVEGDLAACRAALDAGCAAAMRTGRVISRKEIGRPDDDTQWLVTGFNRQPKQPVREPDAPVIVAESADELLALLTSVRQGMTAGEVAAHFGWPLEKARNALEQLFSAGTLRKRSSRYRLKPH,not soluble
3,MQAINPNWNVPKNIHAFTTTREGGVSLAPYLSFNLGDHVGDNKSAVKTNRTLLVEKFGLPQTPIFLTQTHSTRVIQLPYSGQNLEADAVYTNVPNQVCVVMTADCLPVLFTTTSGNEVAATHAGWRGLCDGVLEETVKYFQAKPEDIIAWFGPAIGPKAFQVGIDVVEKFVVVDEKAKLAFQPDAIEEGKYLSNLYQIATQRLNNLGITQIYGGNHCTFNEKEKFFSYRRDNQTGRMASVIWFE,not soluble
4,MEKYAVILGKNPELSLVELKAFSRRFRLGVRILEERIYGSNKSFAIIQAKEDIEKYFRWIGGSLKLVRLIGEGVDSIRDLEYSKLFTVSVYGRRVDWKEWRRFGSMIKEVFKEKDSAKFFKPANTYAMPSELILKGFPKVKDVVLLFVDDKVLVGETVRVTDPFELKKLDVERPVVRPTISIPPRLARVMVNLSEIRRGNVLDPFCGTGTIVMELTLQGLNAYGTDIEEGRVRDAKKNIDWLRKEFRIRKYPVLKVCDVRRLRKCFPRTRFDAIITEPYMGKPLKYKPSRGEAIKIAKGLDRLYYQAFESFADVLKRGSIIVFVFPAFSLSNGEVYRRNRPWLEELGFKVLYRVSEGEEEHRIVRDIHVIKFIR,soluble
5,MGHHHHHHSHPRNSCSLHYIHPYQPNEYLKALVAVGEICQDYDSDKMFPAFGFGARIPPEYTVSHDFAINFNEDNPECAGIQGVVEAYQSCLPKLQLYGPTNIAPIIQKVAKSASEETNTKEASQYFILLILTDGVITDMADTREAIVHASHLPMSVIIVGVGNADFSDMQMLDGDDGILRSPKGEPVLRDIVQFVPFRNFKHASPAALAKSVLAEVPNQVVDYYNGKGIKPKCSSEMYESSRTLAP,not soluble
6,MTQEIDIGKYHQLALQKQKEHRKFLATLKKKAPKNLDKIVQEVHTEVFREIDCTKCANCCKILGPLFTESDISRIAKHFRMRLPVFEDMYLRVDEDNDKVFKSMPCPFLGEDNLCFIYDVRPKACREFPHTDRKKIYQINHLTIQNTLICPAVYLFVEKLQERLALEHHHHHH,soluble
7,MGSDKIHHHHHHMQLGTGLFTCQQRPDDDRETSEIYDEMLELGEVIDNAGLDSAWVSEHHFLDDDYLSGVTPALGALAAVTDNIEIGSCIALAPLYDSIRLAEDIATVDQISGGRTTLGMAIGSNVSEFDAFGIPDDERAERLADAVDTLRGAWSDGPLDYEPEFHDISSDVTVTPKPAHDVPLMLGGASRPAVRRAARTADAWCAPSSLSVDGVRKRVEDIRNVRDDEDIEGDFQVYVLQHGFIGDSREDAWAQMRDGYLYIQRRYEEIFSGETVAELDEERKQELKEQAIFGTPDQVTAELESYREALGDDIHFIFRTYHPGTGTQEMAECIRRLGEEVQPKIS,not soluble
8,MEAEIFPGTIHLIDKPQAIPEAIRLLSASRTIGFDTETRPSFVRGARPSVALMQMSTETDCFLFRLNMIDIPEELQQLLENPGILKVGLSLSDDMTVIRRRKPIEPAGFVELQRLCPAYGIRDASLQKIYAILFGRRISKSQRLTNWEARTLTAAQQSYAALDAWACLRIFNQLMTLPTPTPVQFALL,not soluble
9,KRATQFTASILSLYNSEQMLQKTDPMSVISSAMVAATLDLPIDKNLGYAWIVPYGGKAQFQLGYKGYIQLALRTGQYKSINCIPIHEGELQKWNPLTEEIEIDFEKRESDAVIGYAAYFELINGFRKTVYWTKAQVEKHKKKFSKSDFGWKNDWDAMALKTVLKAVLSKWGILSVEMQKAVIEEDETRERIDITNEADSSEIIDSE,soluble
10,SLRILPQEPVIREEQNWLTILKNAISDPKLLLKALNLPEDDFEQSIAARKLFSLRVPQPFIDKIEKGNPQDPLFLQVMCSDLEFVQAEGFSTDPLEEKNANAVPNILHKYRNRLLFMAKGGCAVNCRYCFRRHFPYDENPGNKKSWQLALDYIAAHSEIEEVIFSGGDPLMAKDHELAWLIKHLENIPHLQRLRIHTRLPVVIPQRITDEFCTLLAETRLQTVMVTHINHPNEIDQIFAHAMQKLNAVNVTLLNQSVLLKGVNDDAQILKILSDKLFQTGILPYYLHLLDKVQGASHFLISDIEAMQIYKTLQSLTSGYLVPKLAREIAGEPNKTLYAE,soluble
11,MALTCTDMSDAVAGSDAEGLTADAIVVGAGLAGLVAACELADRGLRVLILDQENRANVGGQAFWSFGGLFLVNSPEQRRLGIRDSHELALQDWLGTAAFDRPEDYWPEQWAHAYVDFAAGEKRSWLRARGLKIFRWWAGPSVVVTTRRGTATRCPVSTSPGVLGRLWSTYSCVSCVIAPRCALRTATRSTNLEHHHHHH,not soluble
12,MRLDGKTALITGSARGIGRAFAEAYVREGARVAIADINLEAARATAAEIGPAACAIALDVTDQASIDRCVAELLDRWGSIDILVNNAALFDLAPIVEITRESYDRLFAINVSGTLFMMQAVARAMIAGGRGGKIINMASQAGRRGEALVGVYCATKAAVISLTQSAGLNLIRHGINVNAIAPGVVDGEHWDGVDAKFADYENLPRGEKKRQVGAAVPFGRMGRAEDLTGMAIFLATPEADYIVAQTYNVDGGNWMS,soluble
13,MAHHHHHHMPAHRRYSSVSSSSSRAFSEPSDGGTSSVNDSNSYYSEGSGSYRSVSSVLASRSGAKTTAATTASSTSAVDSSSTNTFSDVLTTSSAYSHSSAPPRRAVTRPAASRSEAVGHKTTKGASGVVVADHNNTGVGETLAQRTASTFTAPTTASSVTVDGTDGLVRAPQSLMLQAALAPVSNRTANVARVKPCNVSEEELVHHPWAPVDCDTTVDASKEGGDRGGLALNVLDTIHTVPIAVPLPPEEAPRRREEGSPTYPSRLAFRVVPSSSPLRHSDSAVTEDKDGTGNGGGGAALGADGATAPRARKTSIACCCCCCLHGCGEKAPCNTKRYTATRQKPHHPLRSHHVPLVSFRTTREHGIPMEGVQNVLPSVEEAARYQNLKVDMMGTEEFPKLMRKAIQPRDRLAGGLRLEKSYAFGHGAGGGRGGAGQSAFVRDGDPQGFWIAHLHRCAIVRLEPIGAE,not soluble
14,GSHMLEVLTQKHKPAESQQQAAETEGSCNKKDQNECKSPCKWHNDAENKKCTLDKEEAKKVADETAKDGKTGNTNTTGSS,soluble
15,MSNTSSSHNTAFTPSSPAERYAQALASGQFMPDEAQAQAVQELERVWQELLSRYKASKKAFRRFRRQTSPKGVYMWGGVGRGKTWLMDQFYDSIPFRRKTRMHFHHFMQHVHRELNKLSGQRNPLDLVADQIYKDAVIICFDEFFVSNVTDAMILSDLFQKLFNRGVTLVATSNIAPDGLYKNGIHRDRFLPTIELVQKNCTILNVDAGVDYRLRVLKQAQLFKHPLTDDAKIWMSQRFSAITRSQIVSQQPITINNRVVETLGHTEDVLWCEFSELCLKPRSPADFIEIANIYNTVLVSNVPHLTDYLSEGTRRFIYLVDEFYDRGVKLLLTSQDSIIEIYEGEKLAFEIERTRSRLLEMQSDEYLHSEHRHINSENNSLEHHHHHH,not soluble
16,MGSDKIHHHHHHMTIELTPPPKKNPQKRSTSATRPPEARSRAALGLSAAAAEGRFALQVCAECQAVQYPPRDACAACIGTDLVWQDISPDGHLLAETTIQTSTKLFFRERAPWRMGSVKLTAGPVVLCHVHGDCTRGGPVKILNRLDKSGQAVLIAIPPERTEHMDDDPQLRAMSANPKHRRILITDAWNPNTPALAKALLEAGAATIFVGEAESWRPHPNRDTLAGMENVDILPLDVTDTASVQTLAGEIGGKTDILINNARFMRPGGVLARGDTGFARDEMEVNYLGLMRLAQAFGPGMCARMADGVNSAAAWVNILSAHALSNAPDYGCFSASNAAAYSLSQSLRGEFRSAGLRVMNVFVGPTDDDWYAPLPPPKVLPTGLARSVVDGLRDGLEDVWCGDIAKDMRDRWRRDAKVLEREMTFGSEGA,not soluble
17,MTENILRKSDEEIQKEITARVKALESMLIEQGILTTSMIDRMAEIYENEVGPHLGAKVVVKAWTDPEFKKRLLADGTEACKELGIGGLQGEDMMWVENTDEVHHVVVCTLCSCYPWPVLGLPPNWFKEPQYRSRVVREPRQLLKEEFGFEVPPSKEIKVWDSSSEMRFVVLPQRPAGTDGWSEEELATLVTRESMIGVEPAKAV,soluble
18,MSLEKEYEYLVPPDDYLAAGVHIGTQIKTGDMKKFIFKVRQDGLYVLDIRKLDERIRVAAKFLSRYEPSKILLVAARQYAHKPVQMFSKVVGSDYIVGRFIPGTLTNPMLSEYREPEVVFVNDPAIDKQAVSEATAVGIPVVALCDSNNSSADVDLVIPTNNKGRRALAIVYWLLAREIAKIRGQDFTYSIEDFEAELEGGSHHHHHH,soluble
19,MGSDKIHHHHHHMDTSSREHDLVIYGATGFVGRLIAVYIAEHAPAGMRVGLAGRSNSRLEAVRAELPAAAHGWALIEASSEDADSIAALAANTRVLFTTVGPYAKHGLPVVEACARAGTHYADLAGEVFFIREAIDCYDALARTSGARIVHSCGYDSVPSDLAVLLLHQAAEADGAGGLVEVQLEARARAGISGGTLESMRGQLDAMRSSTALRSLAADPYALSPDRTREPTTPQPPDAGPVRRSADGTWTAPFIMAPFNTRIVRRSNALQRWAYGRSLQYGEVMGVAPGPAGAVIPRAMALGLRAFTGAMAFPPTRKVLDRFLPAPGTGPSTSTQRAGWFHSQVTARTEDGQRYQAIAAGPGDPGYAATAVMAGETALALALDGDRLPTAKGSLTPATALGNVLIQRLRAAGHTYQVSKLA,not soluble
20,MMSAVERRMEIVNVVNQDGKARVEDLAARFDVSSVTIRSDLSFLEKNGYVVRSHGAAIPNTGVIAELTVHEKRHQNIGTKSSIGYAAAQLIENGDTVILDSGTTTREIASNLKSLEQAVVMTNGLDVAMELASASGIEVLMSGGVLRKKALSFSGSQAEASLKNYRFDKVFLGVDGFDLRSGITTHNEQEASLNRLMCDISEQVIAVADSTKFGKRSCHMIREFGNIDILVTDSDIPEEYLQGLREMKVEVIIVEKEK,not soluble
21,MASIPTVNVIGAGLAGSEAAWHIANMGVNVRLYEMRPNKMTPAHHTAQFAELVCTNSLRANQLANAAGLLKAEMRQMDSIVMQAAEHHAVPAGGALAVDRDTFSAEITAAITALPNVEIINEEITSLPDGITVVATGPLTAASLAKSIQAFNDEDDLHFFDAAAPILTKDSIDMDKVYLKSRYDRGEAAYLNCPMTEAEFDVFYDALIHAEMAEAHDFENSDVFEGCMPIEVMAQRGRQTMLFGPLKPVGLEDPKTGKQPFAVVQLRQDDAAGDLYNIVGFQTHLKWGEQKRVFSLIPGLENVEFVRYGVMHRNTFMKSPKLLTPTYQTQQRPDLFFAGQMTGVEGYIESAASGIVAGTNAARLALGLEPVVFPTDTMMGAMAHYITHTSASNFQPMNANFGIMPKLKQRIRDKRERNTAISERALADLTTFKDETLTVNNLEHHHHHH,soluble

# From the DeepSol protein solubility set
